For the assay, the target named is teleost IgM Fc (tFcµ): truncated teleost IgM heavy chain consisting of CHµ3, CHµ4 and the Tp (Oncorhynchus mykiss (rainbow trout)). Nature of the assay: cryo-EM structure; purified tFcµ tetramer fractions in TBS (20 mM Tris-HCl, NaCl, pH 7.8), 0.1 mg/mL on grids; map at 2.78 Å, C2 symmetry.

With “teleost IgM Fc (tFcµ): truncated teleost IgM heavy chain consisting of CHµ3, CHµ4 and the Tp (domain or fragment)”, the stoichiometry N is 4.

The term stoichiometry N denotes a count of units in the complex or per binding partner.
